To fix the notation:
B3: StrepII-tagged HybG (natural protein, E. coli, UniProt P0AAM7 1-82, looked up)
chain: MCIGVPGQVLAVGEDIHQLAQVEVCGIKRDVNIALICEGNPADLLGQWVLVHVGFAMSIIDEDEAKATLDALRQMDYDITSA
modifications: populations with a +26 Da modification on the N-terminal cysteinyl residue, a further +44 Da (CO2) modification, or the Fe(CN)2CO group (+136 Da; only on HybG dissociated from the native HybG-HypD complex)
notes: HybG, HypC-family hydrogenase maturation chaperone of Escherichia coli; the N-terminal residue of the protein is the cysteine that is formally amino acid position 2; Deconvoluted mass of the unmodified tagged protein is printed as 9615 Da; also called StrepII-HybG; native HybG; not shown: StrepII, C-terminal, kept

For data set [1], the target named is B3. Kind of data set: native MS; isolated StrepII-HybG–HypD complex; 500 mM ammonium acetate pH 6.8, about 10 uM protein, nano-ESI Q-TOF, collision energy 40 V; CID-MS/MS of the 13+ ion at 80 V. The following applies: both partners purified.
Data set [2] has as its target B3. The experiment in a line: native MS; purified N-terminally His-tagged pre-HybC supplemented with equimolar amounts of StrepII-HybG; 500 mM ammonium acetate pH 6.8; CID-MS/MS of the 16+ complex ion. The following applies: both partners purified.
Data set [3] deals with the molecule itself. Described as above.

The record followed here is PMC8692609, “Native mass spectrometry identifies the HybG chaperone as carrier of the Fe(CN)2CO group during maturation of E. coli [NiFe]-hydrogenase 2” (Scientific Reports, 2021).

For orientation: stoichiometry N means a count of units in the complex or per binding partner.

B1: HypD (natural protein, E. coli, UniProt P24192 1-373, looked up)
chain: MRFVDEYRAPEQVMQLIEHLRERASHLSYTAERPLRIMEVCGGHTHAIFKFGLDQLLPENVEFIHGPGCPVCVLPMGRIDTCVEIASHPEVIFCTFGDAMRVPGKQGSLLQAKARGADVRIVYSPMDALKLAQENPTRKVVFFGLGFETTMPTTAITLQQAKARDVQNFYFFCQHITLIPTLRSLLEQPDNGIDAFLAPGHVSMVIGTDAYNFIASDFHRPLVVAGFEPLDLLQGVVMLVQQKIAAHSKVENQYRRVVPDAGNLLAQQAIADVFCVNGDSEWRGLGVIESSGVHLTPDYQRFDAEAHFRPAPQQVCDDPRARCGEVLTGKCKPHQCPLFGNTCNPQTAFGALMVSSEGACAAWYQYRQQESEA
notes: HypD, iron-sulfur cluster-containing hydrogenase maturation protein of Escherichia coli; untagged; Carries a 4Fe-4S cluster; Untagged unless stated otherwise; also called HypD scaffold protein
On to B1, for which the “stoichiometry N” value in data set [1] is 1 HybG:HypD.

B2: N-terminally His-tagged pre-HybC (natural protein, E. coli, UniProt P0ACE0 1-567, looked up)
chain: MSQRITIDPVTRIEGHLRIDCEIENGVVSKAWASGTMWRGMEEIVKNRDPRDAWMIVQRICGVCTTTHALSSVRAAESALNIDVPVNAQYIRNIILAAHTTHDHIVHFYQLSALDWVDITSALQADPTKASEMLKGVSTWHLNSPEEFTKVQNKIKDLVASGQLGIFANGYWGHPAMKLPPEVNLIAVAHYLQALECQRDANRVVALLGGKTPHIQNLAVGGVANPINLDGLGVLNLERLMYIKSFIDKLSDFVEQVYKVDTAVIAAFYPEWLTRGKGAVNYLSVPEFPTDSKNGSFLFPGGYIENADLSSYRPITSHSDEYLIKGIQESAKHSWYKDEAPQAPWEGTTIPAYDGWSDDGKYSWVKSPTFYGKTVEVGPLANMLVKLAAGRESTQNKLNEIVAIYQKLTGNTLEVAQLHSTLGRIIGRTVHCCELQDILQNQYSALITNIGKGDHTTFVKPNIPATGEFKGVGFLEAPRGMLSHWMVIKDGIISNYQAVVPSTWNSGPRNFNDDVGPYEQSLVGTPVADPNKPLEVVRTIHSFDPCMACAVHVVDADGNEVVSVKVL
notes: HybC, large (catalytic) subunit of hydrogenase 2 of Escherichia coli, as the immature precursor that still has the C-terminal peptide removed on maturation; also called apo-form of the hydrogenase 2 catalytic subunit; hydrogenase 2 large-subunit precursor; source: E. coli (plasmid pCAN-hybC_(stop)), purified on cobalt-charged TALON Superflow agarose; not shown: His tag, N-terminal, kept
Turning to B2, the “stoichiometry N” value is 1 HybG:pre-HybC in data set [2] and 2 in data set [3].

Regarding B3, the “stoichiometry N” value in data set [3] is 2.
